Reference: paper PMC2818592

How the values were obtained:
[1] = biological target: T1, PDGF-BB (platelet-derived growth factor B-chain homodimer) (UniProt P01127 82-190); experiment: optical diffraction sandwich assay with RCA and microbeads
[2] = biological target: T1, PDGF-BB (platelet-derived growth factor …); experiment: microbead sandwich assay without RCA

T1 sequence (P01127 82-190): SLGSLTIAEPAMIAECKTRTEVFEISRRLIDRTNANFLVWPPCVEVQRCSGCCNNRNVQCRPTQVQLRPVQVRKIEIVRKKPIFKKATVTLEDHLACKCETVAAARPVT

| Binder | binding result [1] | binding result [2] |
| --- | --- | --- |
| aptamer-primer complex (anti-PDGF-BB aptamer with 3' RCA primer) (structured_DNA) DNA: TACTCAGGGCACTGCAAGCAATTGTGGTCCCAATGGGCTGAGTATTTTTTTTGTCCGTGCTAGAAGGAAACAGTTAC | binds | – |
| TACTCAGGGCACTGCAAGCAATTGTGGTCCCAATGGGCTGAGTATTTTTT (structured_DNA) [capture aptamer (anti-PDGF-BB)] | – | binds |
